From a protein production outcome set (Wang et al. 2014)

Experiment: label from the status in PepcDB records

Sequence	protein production
MEIILLIIAAVVLFYFYNTLKEYLKNPLNPKTKTEEYDLKNDPYLLAQSSPLDKFKQTQTGAYMRLLKFLDIQKNALDNALRTLFIHELEQPLNSEQQNLAKELLNEPVDKKENFESLCQEIADHTHGEYTKRLKLVEFLMLLAYADGILDSKEKELFLDVGVFLQIDNQDFNELYDNFERFNAIEIPMSLEEAKSLFEIQTHTTKQDLEKKALDLSAPYYHKMNDNKRYSEQDFISLKKIAIASQLLENDLKDS	failed
MSQPEPRAGENRALRAFAPDAGLFLLKPWIGGLALLADWGLIAAAFACAALWPHPVIYLLAALLIARSQLALAVLMHESAHGLLLRGQKANDRLGQWLAAGPLFLSLCTYRAGHLKHHLHPMEHDDPVVAVFGLGDYPLPRGKLALRLLADLCGVGYFISALRFARGDYRAIMPRVDKSPRQALAQVLSMLVSNGLLFGLLAWSGHPWLYLGLWLLPAITLLPLLGRVRAIMEHAGLPVAADQSRNARSIVRPSVQTFLFGPHAIHYHIEHHLYVRVPFYHLGGLHRQLATAQLLPEGNLYQGYGGVLRDVSDPDWRSSAR	failed
MDNSLLSEIWRQSLAFPWLSAVILNSFLLALAAIAPKKLLTPWGYGHAWVLGVIIWAALGWRGYLVVLAYFFVGSAVTRIGQKEKEAAGIAEKRSGQRGPENVWGSALTAALCALAIAFGPEPWQLWLALGYVASFSTKLSDTTASEVGKAYGKNTFLITTLQPVPRGTEGAVSVEGTLAGFAAGLALAVLGYGVGLISFGGIIFSTLAAFIATNLESVIGATLQNKWPWLTNEVVNGINTFLGAAIAIGIEATAQLI	failed
MAGENSDNEPSSPASPSSAGFNTDQLPISTSQNSENFSDEEEAAVDTQVIRDEPDEAEDEEEEEGEDLFNDTFMNDYRKMDENDQYESNGIDDSVDDERDLGQAMLDRRAADADLDARENRLANRKLPHLLHDNDSDDWNYRPSKRSRTTVPPRGNGGDPDGNPPSSPGVSQPDISMTDQTDDYQDEDDNDDEAEFEMYRIQGTLREWVMRDEVRRFIAKKFKDFLLTYVKPKNENGDIEYVPNKCSLEIDYKEFIHVHPNIAIWLADAPQPVLEVMEEVSEKVIFDLHPNYKNIHTKIYVRVTNLPVNDQIRNIRQIHLNTMIRIGGVVTRRSGVFPQLQQVKYDCNKCGAVLGPFFQNSYSEVKVGSCSECQSKGPFTVNVEQTIYRNYQKLTIQESPGTVPAGRLPRHKEVILLNDLIDCARPGEEIEVTGIYTNNFDLSLNTKNGFPVFATVVEANYVTKKQDLFSAYKLTQEDKTQIEELSKDPRIVERIIKSIAPSIYGHEDIKTALALAMFGGQEKNIKGKHRLRGDINVLLLGDPGTAKSQFLKYVEKTGQRAVYTTGKGASAVGLTAAVHKDPVTREWTLEGGALVLADRGICLIDEFDKMNDQDRVSIHEAMEQQSISISKAGIVTSLQARCSVIAAANPVGGRYDSSKSFAQNVELTDPILSRFDILCVVKDVVDPVTDEMLAEFVVNSHFKSQPKGGKMEDSDPEDGIQGSSGSTDPEVLPQNLLKKYLTYSKLYVFPKLGELDAKKLETVYANLRRESMNGQGVSIATRHLESMIRMSEAHARMHLRQYVTEEDVNMAIRVLLDSFISTQKFGVQRTLRESFKRYITYKKDFNSLLLVLLKELVKNALKFEEIISGSNSGLPTIEVKIEELQTKAKEYDIADLRPFFSSTDFSKAHFELDHGRGMIKCPKRLITW	failed
MFGLEAIDLARIQFAFTVSFHIIFPAITIGLASYLAVLEGLWLKTNEEVYRDLYHFWSKIFAVNFGMGVVSGLVMAYQFGTNWSHFSDFAGSITGPLLTYEVLTAFFLEAGFLGVMLFGWNRVGPGLHFFATVMVAIGTLISTFWILASNSWMQTPQGFEIVDGRVIPVDWLAVIFNPSFPYRLLHMSVAAFLATAFFVGASAAWHLLRGRDNPAIRKMLSMAMWMALIVAPVQALIGDAHGLNTLEHQPAKIAAMEGHWDNSSGEPTPLILFGWPDMQREETRFKVEIPVLGSLILKHSLTEPIPALKDFPPEDRPNSTVVFWSFRIMAGLGMLMILVGVWSLWLRWRGQDKLFNSKAFLRLTLLMGPSGLIAILAGWFTTEMGRQPWVVYGLMRTADASSAQSVTQMSLTLLTFVVVYFSLFGVGIGYMMRLVRKGPVTHEGRETNPGGAGQKRTPARPLSAAGEGFDEEHDGHAQAADRDQDKRN	failed
MALVRKDVVKLAAPIFVEQLFVTLMGMINTMMAGHIGKEAVSAIGMIDSINNIFIAFFSALAVGGTVVVAQYIGQNNIKKANESTKQALYSTIIIAFVITIIMAILKGPLLGFLFGSAEKEVILDANSYFGITLLTYPLITIDLVSNGILRGAGDTKTPMKISILMNVLNVAFTALFIWGIKINGTVVVKSLGITGAALGIATARTIGGIIILIVMVRGSRIVQLKKLTEFKFDMTLLKPIFGIGVPASVESLLFNGGKLIMQIFIVGMGTVAMASNTIVNSISNFLNIPGNSLVIAATALVGQHMGRDDDKGAEKCLSYITKLSTVLLAIVGILSILFSRHLPSPVYWK	failed
MAKGTAVEFQPGGGQARDVFSIAAQAASPAADAGTSAAPAQAAPAPAAVASQAQHFGRTAEPAEPTDLWSYFWNGVTRNYFNFAGRARRKEYWGYCLFWTIALLVIVGIGVFADAEMGNFDSAEMPAMTVGLFGLFLLATFLPSLGMIVRRLHDLGLTGWLCLLILIPTFGSLIILVFALIPTQGRENQWGPVPAGVRV	failed
MKMMDANEIISFIQKSEKKTPVKVYIKGDLKEVTFPETVQAFVNKKSGVLFGEWSEIKTILDENSKYIVDYVVENDRRNSAIPMLDLKGIKARIEPGAIIRDHVEIGDNAVIMMNATINIGAVIGEGSMIDMNAVLGGRATVGKNCHVGAGAVLAGVIEPPSAKPVIVEDDVVIGANVVVLEGVTVGKGAVVAAGAVVTEDVPPYTVVAGTPARVIKEIDEKTKAKTEIKQELRQLNPEK	failed
MMKMMTRVLSSPSSHVSSLKYSPRRVIRASRDHLRAETLKSHQLPSGSSSTSLCSCGRKHFLEAASPTMPFLPICSPNASRSKDVSETFHPQRPDWYKELFAWFLSTGMRSYEAEVSLCDLNASFYDPFLENDRSFSCFMFVLFGKIAEYKRKLFEKLAGKAETVLEIGVGTGPNLKYFAGNENVCVFGMDPNHKMEKYACESAREAGMKPENFRFMHGVSKLLCFDL	failed
MTQIARISDTGTERRLQAERLIGAKALQEAQALRFNVFSGEFNAKLKGAELGLDMDDYDVHCSHIGVRDLNTGRLVATTRLLDHQAANSLGRFYSEEEFSLHGLVQLKGPILEIGRTCVDPAYRNGGTIAVLWGELAEVLNQGGYSYLMGCASIPMQDGGVQAQAIMQRLRERYLCTEHLRAEPKNPLPSLDIPSNVIAEMPPLLKAYMRLGAKICGEPCWDEDFQVADVFILLKRDELCPRYARHFKAAV	failed
MDKLRVPFHRPYVNLRRCSERLVMHIHILGICGTFMGSLAVLAKESGHRVTGSDANVYPPMSTQLQAQGIELTQGYDPAQLDPAPDLVVVGNALSRGNPAVEYVLNKGLPYVSGPQWLADHVLQDRWVLAVAGTHGKTTTSSMLAWVLEHAGMSPGFLIGGIPQNFAVSARLGDTPFFVVEADEYDSAFFDKRSKFVHYRPRTAILNNLEFDHADIFPDLPAIERQFHHLVRTIPSEGLVIHPTTEPALSRVIEMGCWTPVQTTGDGGQWQARLLSEDGSRFEVLFEGELQGAVEWDMTGQHNVANALATLAAARHVGVVPSLGVQALSAFKSVKRRMEKVAEVRGITIYDDFAHHPTAIATTLDGLRKKIGDAPIIAVIEPRSNSMKLGAHRDGLPESVSQADQVVWYAPPNLGWDLAATVAGGSVPSTVCDSLEAIIARVHSQVQPGTHIVIMSNGGFGGLHGKLAEALK	failed
MDGRRMVQGLLTASLLTSIGGDLEVLASRMDLQFQRPVYTGETLVCELTVVSADPHTDGGVALVGDVAVRRVNRDDNSGQADTAAPLEHHHHHH	failed
MENFLSLFDFFKSKIRYIFLIYTIFTIYMNSKNCFINYVLLIFLDVILIIYSFIFLNKKQKYPFLFIIISTIVYAFIWLFGHCDNIYYFIILDDIFEIKADFKKKLLVAIHSSAFMMVTLKNLIFKNYDLHEILSSIAYSIIIYMAILFVFIFIHKFKDERDKLKILNSNLIEYSFNEREFLLSEERNRISQELHDSIGHSLMALSMNIKYLKGIKNRSNINEELDNMDKVIKESVQTLRSTVYNLKKLDECCDLKKEVYDIIKKFNRLDIVKINFDCASDIEKSTTTIKNTLIKTIKEGITNSLKHGNPTEINVTLTLVNSYIKLIIQDNGVGCQNIKPSAGLNGIKKRIEALNGKVAFESKARKGFTIETEIPGGF	failed
MSDWNIDQAEELYGVNRWGAGYFSIGENGNIQIRPNHRLPDVTIDMKEVVDEIISEGIQFPAVIRFHDILRSQVEIINETFGKQIEEANYQGQYCGVFPIKVNQMREVVEEIMDAGEPYNYGLEAGSKPELMAVMAYNDNPEALTILNGYKDKDYLTLALLGRQLKRKMIIVIEKFSELEMLIPLAKQMGVKPMIGLRSKMMVKSSGKWAGSSGDRAKFGLSIAEILNVIERLREEDMLHCAKLLHFHIGSQLSDIRKIKEAVNEGARLYAKLVLEGMPLEYLDIGGGLGIDYDGTSTTNDSSRNYSTEEYVADVVWGVKQICDLEKVPHPNLVSESGRAMTAHHSCVVTNIVGEMKPAGTQYDISASSDEHILVKNMRELHSSGDQFHPQERYNDAAGYKQNAYEAFKLGILSLNEMAKLDTMYWQILADIHHSLDKDTYVMQELEELEDMLASQYLCNFSVFQSAADTWAIGQVLPVVPISRLNEQPEVRCSIVDITCDSDGKLSKYIEGTDISDHIPMHNLRKGEDYHVGLFLTGAYQDVMGDMHNLFGRLTEVHVYCHDDEPGDFYIEEVVPGTSAEKVLQTMQYNTEYMAKTVKKQIDRQVRKGSLAPREGVRWTNFYEHCLAGSTYLRVE	failed
MVVLAVLLPVVFGALLLLGLPRALGVLGAGLSFLLNLYLFLTHPGGVAHAFQAPLLPGAGVYWAFGLDGLSALFFLTIALTVFLGALVARVEGRFLGLALLMEGLLLGLFAARDLLVFYVFFEAALIPALLMLHLYGGEGRTRALYTFVLFTLVGSLPMLAAVLGARLLSGSPTFLLEDLLAHPLQEEAAFWVFLGFALAFAIKTPLFPLHAWLPPFHQENHPSGLADALGTLYKVGVFAFFRFAIPLAPEGFAQAQGLLLFLAALSALYGAWVAFAAKDFKTLLAYAGLSHMGVAALGVFSGTPEGAMGGLYLLAASGVYTGGLFLLAGRLYERTGTLEIGRYRGLAQSAPGLAALALILFLAMVGLPGLSGFPGEFLTLLGAYKASPWLAALAFLSVIASAAYALTAFQKTFWEEGGSGVKDLAGAEWGFALLSVLALLLMGVFPGYFARGLHPLAEAFAKLLGGGA	failed
MTDTLLVTSTNAGTGKTAVSLALARLAGDRDRTVGYMKPKGTRLQSNVGKTLDADPLLARDLLDLDAEIHDLEPVVYSPTFIQGAVRGREDSANLADRVRDAYDELATDRDVMLVEGAGTPTTGGIVDLTDGDIAALLDARAIVVADYTGPSDVDDVLAAADALGDRCAGVVFNAVADAVYDDVESEVTPFLESQGIPVLGVLPVERDLAGVTVDDLASELGATVLTEDTATTDAIVERFLVGAMSSESALSHFRRTKDAAVITGGDRADIQTAALDAPGVQCLVLTGGHRPSGAVLGKATDAGVPVLSVDADTLTTLERAEELVRDGRVRDEHTVDVMQRLLHDHADTDRLLD	failed
MSAEFIDSLAVMLLALGMTTAIGGMYFLFSALGNEKRIEGLLMPAVGVGLFDFMSGFVMSFTWPLPSSYNMLFGDPLLMAGLLLMISAIAYYKHYDISSVSILLFFLGIYVIIEAVGIVNYHLESGDNLLAAMGLYIVDGIAAILSPIMYIDQKKGKIAYMIEAAILIIGTLIALFIGYTAIYGHLLDFIKYFP	failed
MKKIATATIATAGIATFAFAHHDAQAAEQNNDGYNPNDPYSYSYTYTIDAEGNYHYTWKGNWSPDRVNTSYNYNNYNNYNYYGYNNYSNYNNYSNYNNYNNYQSNNTQSQRTTQPTGGLGASYSTSSSNVHVTTTSAPSSNGVSLSNARSASGNLYTSGQCTYYVFDRVGGKIGSTWGNANNWANAAARSGYTVNNSPAKGAILQTSQGAYGHVAYVEGVNSNGSIRVSEMNYGHGAGVVTSRTISASQAASYNYIHLEHHHHHH	failed
